This is an account of results in article PMC4568301 (The Biochemical journal, 2012).

The target in assay [1] is AnxA2–HA (His6–AnxA2 fused to an HA tag, residues 1–339) (human, UniProt P07355 1-339). Description: […].
For assay [2], the target named is T1, NHERF2–VC (Na+/H+ exchanger regulatory factor 2, HA-tagged, fused to the C-terminal fragment of Venus), Q15599.
T1 chain: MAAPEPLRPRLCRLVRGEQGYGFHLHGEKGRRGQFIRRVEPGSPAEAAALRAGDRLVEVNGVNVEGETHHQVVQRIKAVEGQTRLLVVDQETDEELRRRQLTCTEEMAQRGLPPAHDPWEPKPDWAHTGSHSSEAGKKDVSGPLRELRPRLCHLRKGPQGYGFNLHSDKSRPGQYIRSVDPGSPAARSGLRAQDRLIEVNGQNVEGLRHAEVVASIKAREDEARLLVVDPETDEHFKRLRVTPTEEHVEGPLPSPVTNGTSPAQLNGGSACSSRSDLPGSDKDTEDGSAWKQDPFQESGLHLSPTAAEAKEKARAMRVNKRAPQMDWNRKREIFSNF
The experiment in a line: split reporter. To be noted: remark: other sources report otherwise.

Assay [3] has as its target T2, His6–Tir-EHEC (residues 1–558) (enterohaemorrhagic Escherichia coli …, UniProt Q7DB77 1-558).
T2 sequence: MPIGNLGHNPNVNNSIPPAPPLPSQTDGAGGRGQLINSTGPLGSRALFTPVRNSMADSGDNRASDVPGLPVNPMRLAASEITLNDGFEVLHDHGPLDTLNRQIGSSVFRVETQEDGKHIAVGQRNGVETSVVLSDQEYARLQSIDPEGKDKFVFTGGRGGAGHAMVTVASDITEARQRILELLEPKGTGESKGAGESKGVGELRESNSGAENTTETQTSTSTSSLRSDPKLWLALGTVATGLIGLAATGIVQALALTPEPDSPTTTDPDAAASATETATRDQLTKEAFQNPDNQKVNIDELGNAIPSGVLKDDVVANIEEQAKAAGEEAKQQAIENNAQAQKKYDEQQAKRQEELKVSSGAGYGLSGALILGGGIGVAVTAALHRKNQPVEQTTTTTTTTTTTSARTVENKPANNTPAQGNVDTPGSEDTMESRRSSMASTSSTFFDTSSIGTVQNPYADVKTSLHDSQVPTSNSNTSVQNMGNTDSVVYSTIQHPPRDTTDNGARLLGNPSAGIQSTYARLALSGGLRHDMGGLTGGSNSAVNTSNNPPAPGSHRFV
Description: […].

Assay [4] has as its target T3, Tir-EPEC (residues 1–550), His6-tagged (enteropathogenic Escherichia coli (EPEC), UniProt B7UM99 1-550).
T3 sequence: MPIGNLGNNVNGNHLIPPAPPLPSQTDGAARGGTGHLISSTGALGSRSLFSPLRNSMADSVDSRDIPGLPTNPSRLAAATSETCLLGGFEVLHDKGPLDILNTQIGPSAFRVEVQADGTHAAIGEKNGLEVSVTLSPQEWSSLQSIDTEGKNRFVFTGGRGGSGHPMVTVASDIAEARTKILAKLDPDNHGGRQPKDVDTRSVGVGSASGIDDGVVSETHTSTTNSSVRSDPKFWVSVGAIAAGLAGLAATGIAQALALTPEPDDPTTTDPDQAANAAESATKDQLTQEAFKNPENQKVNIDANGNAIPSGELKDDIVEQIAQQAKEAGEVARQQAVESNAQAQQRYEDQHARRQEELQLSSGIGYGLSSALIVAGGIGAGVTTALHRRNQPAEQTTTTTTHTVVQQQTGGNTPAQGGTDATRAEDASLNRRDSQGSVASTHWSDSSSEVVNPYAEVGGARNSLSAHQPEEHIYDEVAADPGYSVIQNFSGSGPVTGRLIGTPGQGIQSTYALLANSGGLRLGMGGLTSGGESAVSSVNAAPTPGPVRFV
The experiment in a line: […].

Chain of AnxA2–HA (His6–AnxA2 fused to an HA tag, residues 1–339) (P07355 whole entry, the tested form may be a part): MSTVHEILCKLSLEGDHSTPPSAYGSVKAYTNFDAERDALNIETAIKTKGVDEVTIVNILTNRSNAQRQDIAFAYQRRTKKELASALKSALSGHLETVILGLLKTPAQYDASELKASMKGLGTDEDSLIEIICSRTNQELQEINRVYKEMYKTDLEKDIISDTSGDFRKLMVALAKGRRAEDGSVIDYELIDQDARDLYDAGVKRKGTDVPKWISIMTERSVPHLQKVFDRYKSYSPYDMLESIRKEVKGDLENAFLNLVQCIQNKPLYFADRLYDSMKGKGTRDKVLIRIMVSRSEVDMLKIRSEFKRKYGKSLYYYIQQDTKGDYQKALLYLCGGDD

B1: TirC-EPEC (residues 369–550), His6-tagged (domain or fragment)
chain: SSALIVAGGIGAGVTTALHRRNQPAEQTTTTTTHTVVQQQTGGNTPAQGGTDATRAEDASLNRRDSQGSVASTHWSDSSSEVVNPYAEVGGARNSLSAHQPEEHIYDEVAADPGYSVIQNFSGSGPVTGRLIGTPGQGIQSTYALLANSGGLRLGMGGLTSGGESAVSSVNAAPTPGPVRFV
In the case of B1, in assay [1], the binding result is “binds”.

B2: NHERF2–VC (Na+/H+ exchanger regulatory factor 2, HA-tagged, fused to the C-terminal fragment of Venus), Q15599 1-337 (natural protein)
chain: T1 chain
With B2, in assay [2], the BiFC signal, percent of Venus fluorescence (% of Venus fluorescence) worked out at 75.

B3: AnxA2-C (C-terminal region of AnxA2, amino acids 191–339), His6-tagged (domain or fragment)
chain: IDQDARDLYDAGVKRKGTDVPKWISIMTERSVPHLQKVFDRYKSYSPYDMLESIRKEVKGDLENAFLNLVQCIQNKPLYFADRLYDSMKGKGTRDKVLIRIMVSRSEVDMLKIRSEFKRKYGKSLYYYIQQDTKGDYQKALLYLCGGDD
With B3, the binding result in assay [3] and in assay [4] was “binds” in each case.

B4: TirN-EHEC (residues 1–237), His6-tagged (domain or fragment)
chain: MPIGNLGHNPNVNNSIPPAPPLPSQTDGAGGRGQLINSTGPLGSRALFTPVRNSMADSGDNRASDVPGLPVNPMRLAASEITLNDGFEVLHDHGPLDTLNRQIGSSVFRVETQEDGKHIAVGQRNGVETSVVLSDQEYARLQSIDPEGKDKFVFTGGRGGAGHAMVTVASDITEARQRILELLEPKGTGESKGAGESKGVGELRESNSGAENTTETQTSTSTSSLRSDPKLWLALGT
For B4, the binding result in assay [1] is on record as “binds”.

B5: TirN-EPEC (residues 1–240), His6-tagged (domain or fragment)
chain: MPIGNLGNNVNGNHLIPPAPPLPSQTDGAARGGTGHLISSTGALGSRSLFSPLRNSMADSVDSRDIPGLPTNPSRLAAATSETCLLGGFEVLHDKGPLDILNTQIGPSAFRVEVQADGTHAAIGEKNGLEVSVTLSPQEWSSLQSIDTEGKNRFVFTGGRGGSGHPMVTVASDIAEARTKILAKLDPDNHGGRQPKDVDTRSVGVGSASGIDDGVVSETHTSTTNSSVRSDPKFWVSVGA
Consider B5, for which the binding result in assay [1] is reported as “binds”.

B6: TirC-EHEC (residues 366–558), His6-tagged (domain or fragment)
chain: SGALILGGGIGVAVTAALHRKNQPVEQTTTTTTTTTTTSARTVENKPANNTPAQGNVDTPGSEDTMESRRSSMASTSSTFFDTSSIGTVQNPYADVKTSLHDSQVPTSNSNTSVQNMGNTDSVVYSTIQHPPRDTTDNGARLLGNPSAGIQSTYARLALSGGLRHDMGGLTGGSNSAVNTSNNPPAPGSHRFV
Take B6: in assay [1], the binding result was “binds”.
